The text below walks through data of patent publication CN111494645A (UNIV CHINA PHARMA, dated 2020).

Numbering of substitutions follows the chain as printed. In names and notes the source's numbering stands.

Test [1] has as its target T1, 人DLL4抗原 (human, UniProt Q9NR61 27-524, limits assumed).
T1 construct: also called Delta like 4
Nature of the test: ELISA, DLL4 antigen coated at 1 μg/mL, antibody titrated 0-1000 nM, HRP secondary, OD450-OD630.

Test [2] has as its target T1, 人DLL4抗原. Put plainly: ELISA, DLL4 antigen coated at 1 μg/mL, conjugate titrated 0-1000 nM, HRP secondary, OD450-OD630. (In general: In an ELISA, binding on a coated surface is turned into a signal by an enzyme label.)

T1 sequence (Q9NR61 27-524 limits assumed): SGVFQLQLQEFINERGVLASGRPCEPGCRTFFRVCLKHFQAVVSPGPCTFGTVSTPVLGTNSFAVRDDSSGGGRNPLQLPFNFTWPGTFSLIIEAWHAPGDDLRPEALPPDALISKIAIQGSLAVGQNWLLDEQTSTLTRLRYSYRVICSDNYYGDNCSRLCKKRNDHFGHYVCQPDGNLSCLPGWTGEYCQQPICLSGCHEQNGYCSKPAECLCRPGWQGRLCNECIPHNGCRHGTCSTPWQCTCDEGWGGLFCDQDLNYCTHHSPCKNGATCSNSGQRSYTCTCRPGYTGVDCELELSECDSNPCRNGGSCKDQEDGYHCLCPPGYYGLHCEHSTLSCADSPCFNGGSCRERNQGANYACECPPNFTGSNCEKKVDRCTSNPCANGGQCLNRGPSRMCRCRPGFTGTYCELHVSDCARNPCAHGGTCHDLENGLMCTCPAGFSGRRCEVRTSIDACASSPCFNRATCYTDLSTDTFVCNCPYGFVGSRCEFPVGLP

B1: 抗人DLL4人源化抗体H3L2 (antibody)
heavy: not shown
light: EIVITQSPDFQSVTPKEKVTITCSVSSSISSSYLHWYQQKPDQSPKPWIYGTSNLASGVPSRFSGSGSGTDYTLTINSLEAEDAATYYCQQWSSSPLTFGQGTKLEIKVDTVAAPSVFIFPPSDEQLKSGTASVVCLLNNFYPREAKVQWKVDNALQSGNSQESVTEQDSKDSTYSLSSTLTLSKADYEKHKVYACEVTHQGLSSPVTKSFNRGEC
notes: IgG1 humanized antibody; also called 裸抗
What is called EC50 is the midpoint of the concentration-response curve. Lower therefore signals greater potency. In the test with 人DLL4抗原 [1], B1 registered an EC50 of 49.2 nM. This counts as double-digit nanomolar.

B2: 抗人DLL4人源化抗体THL4与美登素生物碱DM1的偶联物HLmD4 (THL4-mpeo-DM1) (antibody, human IgG1, kappa, DAR 3.96)
heavy: not shown
light: B1 light with V207C
modifications: DM1 coupled through the BMPEO linker (mpeo-DM1) to the engineered Cys at light chain position 207 (V207C); DM1 coupled through the BMPEO linker (mpeo-DM1) to the engineered Cys at heavy chain position 121 (K121C)
notes: Antibody-drug conjugate of the IgG1 antibody THL4 (H3L2 with light chain V207C and heavy chain K121C) with DM1; average DAR 3.96 by HPLC; also called 抗体药物偶联物HLmD4
Consider B2, for which the EC50 with 人DLL4抗原 [2] amounted to 42.6 nM.
